Data taken from patent publication US12497593B2, “Generation of hematopoietic progenitor cells from human pluripotent stem cells” (Wisconsin Alumni Research Foundation, priority 2018, dated 2025).

Tested on: human pluripotent stem cells provided at high cell density
Assay: Hematopoietic cell formation in high cell density differentiation culture
Assay type: cell-based
Conditions: with 50 ng/ml BMP4
Procedure: FIGS. 1A-1F concern hematopoietic cell differentiation in accord with the invention. […] Cells in high cell density methods of the experiments depicted in this figure were plated at 1.1×10^5 cells/cm^2. Cells in low cell density methods of the experiments depicted in this figure were plated at 1.8×10^4 cells/cm^2. The photographs of FIG. 1B show cell morphology of cells of each culture at day 10. […] The hematopoietic cells could be cryopreserved at day 10 (90% FBS+10% DMSO) and hemangioblasts can be cryopreserved at day 6.
FIG. 2A-2D show Notch and YAP signaling in the low and high density cell cultures. FIGS. 2A-2B show immunostaining of YAP and NICD1 (Notch intra-cellular domain). […] Cells cultured at high density were treated with or without 10 μM DAPT (a Notch inhibitor) from day 2-10.
FIGS. 3A-3E show BMP4 signaling in the low and high density cell cultures. […] Cells were cultured at high density with or without 50 ng/ml BMP4. […] Cells were cultured at low density with or without LDN (a BMP signaling inhibitor).
Cell-cell contact regulates arterial endothelial cells and hemangioblast cell fate determination—Endothelial-to-hematopoietic stem cell transition occurs in aorta-gonad-mesonephros region. We therefore investigated whether human pluripotent stem cell-derived arterial endothelial cells can be reprogrammed into hematopoietic stem cells. […]

B1: BMP4: Bone Morphogenetic Protein 4, added at 50 ng/ml to high density culture (protein, UniProt P12644 293-408, looked up)
Bone morphogenetic protein 4: SPKHHSQRARKKNKNCRRHSLYVDFSDVGWNDWIVAPPGYQAFYCHGDCPFPLADHLNSTNHAIVQTLVNSVNSSIPKACCVPTELSAISMLYLDEYDKVVLKNYQEMVVEGCGCR
Q: Which “hematopoiesis (total hematopoietic cell number, cell morphology at day 10)” value does the source give for B1 here?
A: promoted hematopoiesis
